B1: Protein PTHB1 (Homo sapiens), Q3SYG4 (parent)
chain: MSLFKARDWWSTILGDKEEFDQGCLCLANVDNSGNGQDKIIVGSFMGYLRIFSPHPAKTGDGAQAEDLLLEVDLRDPVLQVEVGKFVSGTEMLHLAVLHSRKLCVYSVSGTLGNVEHGNQCQMKLMYEHNLQRTACNMTYGSFGGVKGRDLICIQSMDGMLMVFEQESYAFGRFLPGFLLPGPLAYSSRTDSFLTVSSCQQVESYKYQVLAFATDADKRQETEQQKLGSGKRLVVDWTLNIGEQALDICIVSFNQSASSVFVLGERNFFCLKDNGQIRFMKKLDWSPSCFLPYCSVSEGTINTLIGNHNNMLHIYQDVTLKWATQLPHIPVAVRVGCLHDLKGVIVTLSDDGHLQCSYLGTDPSLFQAPNVQSRELNYDELDVEMKELQKIIKDVNKSQGVWPMTEREDDLNVSVVVSPNFDSVSQATDVEVGTDLVPSVTVKVTLQNRVILQKAKLSVYVQPPLELTCDQFTFEFMTPDLTRTVSFSVYLKRSYTPSELEGNAVVSYSRPTDRNPDGIPRVIQCKFRLPLKLICLPGQPSKTASHKITIDTNKSPVSLLSLFPGFASQSDDDQVNVMGFHFLGGARITVLASKTSQRYRIQSEQFEDLWLITNELILRLQEYFEKQGVKDFACSFSGSIPLQEYFELIDHHFELRINGEKLEELLSERAVQFRAIQRRLLARFKDKTPAPLQHLDTLLDGTYKQVIALADAVEENQGNLFQSFTRLKSATHLVILLIALWQKLSADQVAILEAAFLPLQEDTQELGWEETVDAAISHLLKTCLSKSSKEQALNLNSQLNIPKDTSQLKKHITLLCDRLSKGGRLCLSTDAAAPQTMVMPGGCTTIPESDLEERSVEQDSTELFTNHRHLTAETPRPEVSPLQGVSE
partner: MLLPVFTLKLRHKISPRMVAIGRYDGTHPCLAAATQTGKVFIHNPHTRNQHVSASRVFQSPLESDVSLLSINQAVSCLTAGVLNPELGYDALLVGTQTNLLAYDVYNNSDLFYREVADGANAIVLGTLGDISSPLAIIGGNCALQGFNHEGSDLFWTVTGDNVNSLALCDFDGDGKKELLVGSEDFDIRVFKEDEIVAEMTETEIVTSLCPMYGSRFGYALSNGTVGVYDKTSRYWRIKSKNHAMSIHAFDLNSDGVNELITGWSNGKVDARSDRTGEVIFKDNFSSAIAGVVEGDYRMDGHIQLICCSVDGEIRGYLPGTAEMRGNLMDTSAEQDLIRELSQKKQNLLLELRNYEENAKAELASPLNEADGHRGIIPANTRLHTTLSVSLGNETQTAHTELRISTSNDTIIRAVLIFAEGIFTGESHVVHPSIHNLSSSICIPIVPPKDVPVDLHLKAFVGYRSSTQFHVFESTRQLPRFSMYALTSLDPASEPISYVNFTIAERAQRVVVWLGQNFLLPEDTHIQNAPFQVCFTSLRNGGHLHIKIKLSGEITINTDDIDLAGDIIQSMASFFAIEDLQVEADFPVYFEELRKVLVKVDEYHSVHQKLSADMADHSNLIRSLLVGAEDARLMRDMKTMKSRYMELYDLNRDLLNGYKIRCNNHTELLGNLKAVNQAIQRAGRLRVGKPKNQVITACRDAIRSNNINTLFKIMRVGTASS

Variants of: B1
Details: with bbs2_human BBS2, Q9BXC9
With E466K the “effect of a mutation on the interaction” value was “with no effect”. In the case of S541A, the “effect of a mutation on the interaction” value is reported as “with no effect”. In the case of S541K, the “effect of a mutation on the interaction” value is reported as “with no effect”. For L616K, the “effect of a mutation on the interaction” value was “with no effect”. In the case of T468E, the “effect of a mutation on the interaction” value is reported as “with no effect”. In the case of D410K, the “effect of a mutation on the interaction” value is reported as “with no effect”. D410A was tested, and the “effect of a mutation on the interaction” value was “with no effect”. For S880E, the “effect of a mutation on the interaction” value was “with no effect”. S880K was tested, and the “effect of a mutation on the interaction” value was “with no effect”. N420K was tested, and the “effect of a mutation on the interaction” value was “with no effect”. With D572A the “effect of a mutation on the interaction” value was “with no effect”. With F580K the “effect of a mutation on the interaction” value was “with no effect”. F684A was tested, and the “effect of a mutation on the interaction” value was “with no effect”. In the case of L692K, the “effect of a mutation on the interaction” value is reported as “with no effect”. With Q602A the “effect of a mutation on the interaction” value was “with no effect”. In the case of T813E, the “effect of a mutation on the interaction” value is reported as “with no effect”. In the case of F624E, the “effect of a mutation on the interaction” value is reported as “with no effect”. P840K was tested, and the “effect of a mutation on the interaction” value was “with no effect”. For P840A, the “effect of a mutation on the interaction” value was “disrupting interaction strength”. For V432E, the “effect of a mutation on the interaction” value was “with no effect”. In the case of Q453E, the “effect of a mutation on the interaction” value is reported as “with no effect”. With V444K the “effect of a mutation on the interaction” value was “with no effect”. M837A was tested, and the “effect of a mutation on the interaction” value was “with no effect”. In the case of D696K, the “effect of a mutation on the interaction” value is reported as “with no effect”. For V671A, the “effect of a mutation on the interaction” value was “with no effect”. With Y645K the “effect of a mutation on the interaction” value was “with no effect”. With L727E the “effect of a mutation on the interaction” value was “with no effect”. With P802A the “effect of a mutation on the interaction” value was “with no effect”. For K781E, the “effect of a mutation on the interaction” value was “with no effect”. With G659A the “effect of a mutation on the interaction” value was “with no effect”. L851K was tested, and the “effect of a mutation on the interaction” value was “with no effect”. With T434A the “effect of a mutation on the interaction” value was “with no effect”. For S414K, the “effect of a mutation on the interaction” value was “with no effect”. In the case of S414E, the “effect of a mutation on the interaction” value is reported as “with no effect”. With Q748K the “effect of a mutation on the interaction” value was “disrupting interaction strength”. For E765A, the “effect of a mutation on the interaction” value was “with no effect”. G822R was tested, and the “effect of a mutation on the interaction” value was “disrupting interaction strength”. H581K was tested, and the “effect of a mutation on the interaction” value was “with no effect”. With A504E the “effect of a mutation on the interaction” value was “with no effect”. In the case of P881K, the “effect of a mutation on the interaction” value is reported as “with no effect”. For P881A, the “effect of a mutation on the interaction” value was “with no effect”. With A712E the “effect of a mutation on the interaction” value was “with no effect”. A792K was tested, and the “effect of a mutation on the interaction” value was “with no effect”. A792E was tested, and the “effect of a mutation on the interaction” value was “with no effect”. For Q627K, the “effect of a mutation on the interaction” value was “with no effect”. In the case of G518A, the “effect of a mutation on the interaction” value is reported as “with no effect”. I612K was tested, and the “effect of a mutation on the interaction” value was “with no effect”. For T543A, the “effect of a mutation on the interaction” value was “with no effect”. For P516A, the “effect of a mutation on the interaction” value was “with no effect”. V838K was tested, and the “effect of a mutation on the interaction” value was “with no effect”. In the case of S723K, the “effect of a mutation on the interaction” value is reported as “with no effect”. For L720E, the “effect of a mutation on the interaction” value was “with no effect”. D762A was tested, and the “effect of a mutation on the interaction” value was “with no effect”. D762E was tested, and the “effect of a mutation on the interaction” value was “with no effect”. In the case of D850E, the “effect of a mutation on the interaction” value is reported as “with no effect”. With T763K the “effect of a mutation on the interaction” value was “with no effect”. With E715A the “effect of a mutation on the interaction” value was “with no effect”. For S860E, the “effect of a mutation on the interaction” value was “with no effect”. In the case of S860K, the “effect of a mutation on the interaction” value is reported as “with no effect”. With I846E the “effect of a mutation on the interaction” value was “with no effect”. In the case of S797K, the “effect of a mutation on the interaction” value is reported as “with no effect”. In the case of F472K, the “effect of a mutation on the interaction” value is reported as “with no effect”. In the case of L500E, the “effect of a mutation on the interaction” value is reported as “with no effect”. For I676K, the “effect of a mutation on the interaction” value was “with no effect”. With S558N the “effect of a mutation on the interaction” value was “disrupting interaction strength”. In the case of F563K, the “effect of a mutation on the interaction” value is reported as “with no effect”. In the case of R656K, the “effect of a mutation on the interaction” value is reported as “with no effect”. In the case of Y508E, the “effect of a mutation on the interaction” value is reported as “with no effect”. G538E was tested, and the “effect of a mutation on the interaction” value was “with no effect”. In the case of Q835K, the “effect of a mutation on the interaction” value is reported as “with no effect”. S635E was tested, and the “effect of a mutation on the interaction” value was “with no effect”. In the case of D571A, the “effect of a mutation on the interaction” value is reported as “with no effect”. V734A was tested, and the “effect of a mutation on the interaction” value was “with no effect”. E622K was tested, and the “effect of a mutation on the interaction” value was “with no effect”. In the case of I588K, the “effect of a mutation on the interaction” value is reported as “with no effect”. With G584A the “effect of a mutation on the interaction” value was “with no effect”. For L560A, the “effect of a mutation on the interaction” value was “with no effect”. With S788A the “effect of a mutation on the interaction” value was “with no effect”. S788E was tested, and the “effect of a mutation on the interaction” value was “with no effect”. With P419E the “effect of a mutation on the interaction” value was “with no effect”. In the case of F756E, the “effect of a mutation on the interaction” value is reported as “with no effect”. For I451A, the “effect of a mutation on the interaction” value was “with no effect”. In the case of T428K, the “effect of a mutation on the interaction” value is reported as “with no effect”. With F673E the “effect of a mutation on the interaction” value was “with no effect”. With N553K the “effect of a mutation on the interaction” value was “with no effect”. For N553T, the “effect of a mutation on the interaction” value was “disrupting interaction strength”. For W610E, the “effect of a mutation on the interaction” value was “with no effect”. In the case of W610K, the “effect of a mutation on the interaction” value is reported as “with no effect”. In the case of L666K, the “effect of a mutation on the interaction” value is reported as “with no effect”. For M578A, the “effect of a mutation on the interaction” value was “with no effect”. With L793A the “effect of a mutation on the interaction” value was “with no effect”.
